Test results reported in paper PMC9564178 (Cells, 2022).

How the values were obtained:
[1] = biological target: T1, human recombinant TPPP1 (hexaHis fusion) (human, UniProt O94811 1-219); experiment: ELISA; TPPP3 immobilised; recombinant TPPP1 added at different concentrations with extract of non-transfected HeLa cells (0.32 mg/mL); detected by monoclonal TPPP1 antibody; apparent Kd; settings: both partners purified
T1 construct: human TPPP1 (Tubulin Polymerization Promoting Protein, TPPP/p25), UniProtKB O94811, 219 amino acids; probably the whole 219-residue protein; also called TPPP/p25; source: E. coli BL21 (DE3), isolated on a HIS-Select Cartridge

[2] = biological target: T1, human recombinant TPPP1 (hexaHis fusion); experiment: ELISA; TPPP3 immobilised (5 μg/mL, PBS); recombinant TPPP1 added at different concentrations, without HeLa extract; detected by monoclonal TPPP1 antibody; apparent Kd, single-site hyperbola; settings: both partners purified

T1 sequence (O94811 whole entry, the tested form may be a part): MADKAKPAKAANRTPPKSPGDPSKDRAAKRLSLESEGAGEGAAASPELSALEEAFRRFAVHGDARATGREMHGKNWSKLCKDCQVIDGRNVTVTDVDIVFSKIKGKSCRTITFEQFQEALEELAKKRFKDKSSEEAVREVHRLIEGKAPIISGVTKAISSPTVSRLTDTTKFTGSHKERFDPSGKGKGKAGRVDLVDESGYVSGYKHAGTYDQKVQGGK

Kd [1]: 47.7 nM
Kd [2]: 6.53 nM
B1: human recombinant TPPP3 (hexaHis fusion) (natural protein)
chain: AGLEESFRKFAIHGDPKASGQEMNGKNWAKLCKDCKVADGKSVTGTDVDIVFSKVKGKSARVINYEEFKKALEELATKRFKGKSKEEAFDAICQLVAGKEPANVGVTKAKTGGAVDRLTDTSRYTGSHKERFDESGKGKGIAGRQDILDDSGYVSAYKNAGTYDAKVKK
notes: human TPPP3 (Tubulin Polymerization Promoting Protein 3), UniProtKB Q9BW30, 176 amino acids; probably the whole 176-residue protein; also called TPPP/p20; source: E. coli BL21 (DE3), isolated on a HIS-Select Cartridge
